Assay results as given in patent US20120058537A1.

Tests used:
[1] = molecular target: fibrin clots (formed from fibrinogen with bovine thrombin); assay: fibrin clot binding at 0.2 mg/mL fibrinogen; bound = total minus free enzyme in the supernatant
[2] = molecular target: fibrin clots (formed from fibrinogen with bovine thrombin); assay: fibrin clot binding at 0.3 mg/mL fibrinogen; bound = total minus free enzyme in the supernatant
[3] = molecular target: fibrin clots (formed from fibrinogen with bovine thrombin); assay: fibrin clot binding; ratio against full length t-PA
[4] = molecular target: full length t-PA (tissue-type plasminogen activator), commercially available t-PA, Actylase (human) (UniProt P00750); assay: cell-based or functional assay
[5] = molecular target: chimeric truncated and mutant variant of t-PA (truncated-mutant t-PA, KHRR 128-131 substituted with AAAA) (human) (UniProt P00750); assay: cell-based or functional assay

fibrin affinity (percent of enzyme bound to fibrin clot) [1] [%] | fibrin affinity (percent of enzyme bound to fibrin clot) [2] [%] | fibrin affinity relative to full length t-PA (set to 100%) [3] [%] | residual activity after inhibition by rPAI-1 [4] [%] | residual activity after inhibition by rPAI-1 [5] [%] | Substance
38 | 46 | 86 |  |  | chimeric truncated t-PA (GHRP-SYQ-K2S) (from UniProt P00750 211-562) (enzyme)
44 | 53 |  |  |  | full length t-PA (tissue-type plasminogen activator), commercially available t-PA, Actylase (from UniProt P00750 36-562) (enzyme)
 |  |  | 65 | 85 | human rPAI-1 (recombinant plasminogen activator inhibitor-1) (from UniProt P05121 24-402)
